Article PMC5268738, “A sequential multi-target Mps1 phosphorylation cascade promotes spindle checkpoint signaling” (eLife, 2017)
Values belong to the substance of their own block, whether it stands above or below them.

Legend:
Mad1 CTD [1] = biological target: Mad1 CTD (UniProt Q9Y6D9); test: ITC; conditions: reference: pT461 peptide; sites S459
Mad1 CTD [2] = biological target: Mad1 CTD (UniProt Q9Y6D9); test: peptide-bead pull-down, Coomassie
Cdc20 Cdc20N, 1-170 = Cdc20 Cdc20N, 1-170 (UniProt Q12834); test: Ni2+ bead pull-down, anti-Mad1 blot; conditions: reference: Mad1E–Mad2 wild type; sites T716
scMad1 CTD [3] = biological target: scMad1 CTD (UniProt P40957); test: ITC; conditions: reference: pT455 peptide; sites T453
scMad1 CTD [4] = biological target: scMad1 CTD (UniProt P40957); test: peptide-bead pull-down, Coomassie

binding against the reference (Mad1 CTD [1]): stronger
binding against the reference (Mad1 CTD [2]; reference: pT461 peptide, sites S459): stronger
Substance: Bub1 455-477 (from UniProt O43683) pS459-pT461 peptide

binding against the reference (Mad1 CTD [2]; reference: pS459-pT461 peptide, sites T464): weaker
Substance: Bub1 455-477 (from UniProt O43683) pS459-pT461-pT464 peptide

binding against the reference (Cdc20 Cdc20N, 1-170): weaker
Substance: Mad1 Mad1E (MIM + CTD) (from UniProt Q9Y6D9) Mad1E T716A

binding against the reference (scMad1 CTD [3]): same
binding against the reference (scMad1 CTD [4]; reference: pT453 peptide, sites T455): stronger
binding against the reference (scMad1 CTD [4]; reference: pT455 peptide, sites T453): same
Substance: scBub1 449-473 (from UniProt P41695) pT453-pT455 peptide
